In general, EC50 refers to the midpoint of the concentration-response curve.

This note sets out measurements from patent publication US20260234242A1 (HAINAN SIMCERE ZAIMING PHARMACEUTICAL, published 2026).

The target of assay [1] is T1, human CDH6 on tumor cells (OVCAR3 cells, PA-1 cells) (human, UniProt P55285 54-790).
T1 sequence: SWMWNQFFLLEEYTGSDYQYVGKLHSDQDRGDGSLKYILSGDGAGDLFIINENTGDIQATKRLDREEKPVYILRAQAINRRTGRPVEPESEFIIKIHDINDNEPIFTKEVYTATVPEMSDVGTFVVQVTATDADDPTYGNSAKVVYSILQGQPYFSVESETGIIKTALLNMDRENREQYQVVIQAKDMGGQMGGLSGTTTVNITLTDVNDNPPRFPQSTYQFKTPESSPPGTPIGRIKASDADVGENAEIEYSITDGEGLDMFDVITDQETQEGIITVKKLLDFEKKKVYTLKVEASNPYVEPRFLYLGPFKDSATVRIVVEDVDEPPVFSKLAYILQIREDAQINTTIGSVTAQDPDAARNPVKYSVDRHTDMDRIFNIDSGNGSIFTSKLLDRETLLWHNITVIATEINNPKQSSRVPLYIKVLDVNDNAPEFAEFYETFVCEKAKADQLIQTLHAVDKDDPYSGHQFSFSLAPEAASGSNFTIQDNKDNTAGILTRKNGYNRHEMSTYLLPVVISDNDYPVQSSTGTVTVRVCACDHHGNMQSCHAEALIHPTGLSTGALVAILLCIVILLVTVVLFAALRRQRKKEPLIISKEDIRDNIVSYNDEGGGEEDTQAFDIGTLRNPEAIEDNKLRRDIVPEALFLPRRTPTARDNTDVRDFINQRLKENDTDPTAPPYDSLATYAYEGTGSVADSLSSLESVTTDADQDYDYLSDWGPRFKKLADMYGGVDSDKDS
As to the kind of experiment: FACS, OVCAR3 cells, 4° C. arm of endocytosis assay, antibody diluted to 10 µg/mL. The procedure:
OVCAR3 cells were cultured until a confluence of 90% was reached, the medium was removed by pipetting, the cells were washed once with PBS, and then treated with an enzyme-free cell dissociation solution (Versene, purchased from Gibco, Cat. No. 15040-066) and the cells were collected. The cells were washed once with PBS, counted, resuspended to 2×10⁶ cells/mL in an FACS buffer (PBS+2% FBS), and then added to two 96-well plates at 50 μL/well. The chimeric antibodies were diluted with FACS buffer (PBS+2% FBS) to 10 μg/mL and separately added to the two 96-well plates at 50 μL/well, and the plates were incubated at 4° C. for 1 h. After the cells were washed 3 times with PBS, the cells were resuspended in an FACS buffer. One 96-well plate was incubated at 4° C. for 1 h, and the other 96-well plate was incubated at 37° C. for 1 h. […] After the plates were centrifuged and washed 2 times with PBS, the cells were resuspended in an FACS buffer. The mean fluorescence intensity (MFI) was measured using FACS Canton II (BD). The chimeric antibodies tested all had good endocytic activity.

In assay [2] the target is T1, human CDH6 on tumor cells (OVCAR3 …). As to the kind of experiment: FACS, PA-1 cells. The procedure:
(§1) OVCAR3 cells with high expression of CDH6 and PA-1 cells with moderate expression of CDH6 were used to detect the binding activity of the antibodies to the cells. […] The cells were washed once with PBS, counted, resuspended to 2×10⁶ cells/mL in an FACS buffer (PBS+2% FBS), and then added to a 96-well plate at 50 μL/well. The chimeric antibodies were diluted with FACS buffer (PBS+2% FBS) and added to the 96-well plate at 50 μL/well, and the plate was incubated at 4° C. for 1 h. […] The dilution was added to the 96-well plate at 50 μL/well, and the plate was incubated at 4° C. for 1 h. After the plates were centrifuged and washed 2 times with PBS, the cells were resuspended in an FACS buffer. The mean fluorescence intensity (MFI) was measured using FACS Canton II (BD). Analysis was performed by the GraphPad Prism software, data were fitted, and EC50 values were calculated. The chimeric antibodies tested had strong binding to both OVCAR3 cells and PA-1 cells.
In general terms: In flow cytometry, cells or beads pass a laser one at a time.

Assay [3] shares this target. As to the kind of experiment: FACS, OVCAR3 cells. The procedure:
as §1

B1: CHI-CDH6-4 (antibody, human IgG1, kappa, V domains shown)
VH: QVQLQQSGPELVKPGASVKISCKASGYAFSNFWMNWVKQRPGKGLEWIGWIYPGDGDTNYNGKFKDKATLTADKSSSTAYIQLSSLTSEDSAVYFCARLYDAWGFFDYWGQGTTLTVSS
VL: QIVLTQSPAIMSASPGQKVTITCSASSSVNYMHWYQQKLGSSPKLWIYDKSKLAPGVPARFSGSGSGTSYSLTISSMEAEDAASYFCHQWSSYPPMTFGGGTKLEIKR
notes: also called CH1-CDH6-4; chimeric antibody of murine CDH6-4
In the case of B1, in assay [1], the “MFI_4° C.” value was found to be 9520 MFI. For the same molecule, in assay [2], the EC50 worked out at 2.48 nM and the “Max MFI” value worked out at 3990 MFI. Moreover, in assay [3], the EC50 worked out at 3.17 nM and the “Max MFI” value amounted to 14000 MFI.

B2: CHI-CDH6-3 (antibody, human IgG1, kappa, V domains shown)
VH: QVQLQQPGAELVKPGASVKLSCKASGYTFTSYWIHWVKQRPGQGLEWIGEINPSNGVTNCNENFKSKATLTVDKSSSTAYMQLSSLTSEDSAVYYCTIPNLLWWYFDVWGAGTTVTVSS
VL: DIQMTQSPASLSVSVGETVTITCRASENIYSNLAWYQQKQGKSPQLLVYEATNLADGVPSRFSGSGSGTQYSLKINSLQSEDFGSYYCQHFWGTLWTFGGGTKLEIKR
notes: also called CH1-CDH6-3; chimeric antibody of murine CDH6-3
Turning to B2, the “MFI_4° C.” value in assay [1] turned out to be 9280 MFI. Also, in assay [2], the EC50 was 0.13 nM and the “Max MFI” value was 3870 MFI. For the same molecule, in assay [3], a half-maximal effect (EC50) was put at 1.16 nM and the “Max MFI” value stood at 15500 MFI.

B3: CHI-CDH6-5 (antibody, human IgG1, kappa, V domains shown)
VH: QVQLQQSGAELVRPGTSVKMSCKAAEYTFTNYWIGWVKQRPGHGLEWIGDLYPGGDHANYNEKFEGKATLTADTSSSTAYMQLSSLTSEDSAIYYCARGMLTTGFDSWGQGTTLTVSS
VL: DIVMSQSPSSLAVSAGEKVTMSCKSSQSLFNSRTRKNYLAWYQQKPGQSPKLLIYWASTRESGVPDRFTGSGSGTDFTLTISSVQAEDLAVYYCKQSYYLRTFGGGTKLEIKR
notes: also called CH1-CDH6-5; chimeric antibody of murine CDH6-5
Regarding B3, the “MFI_4° C.” value in assay [1] is 8810 MFI. Also, in assay [2], the response was half-maximal at 0.49 nM (EC50) and the “Max MFI” value came to 4560 MFI. Further, in assay [3], it took 0.57 nM to reach a half-maximal effect (EC50) and the “Max MFI” value is 12700 MFI.

B4: CHI-CDH6-11 (antibody, human IgG1, kappa, V domains shown)
VH: QIQLQQSGPELVKPGASVRISCKASGYTFTDYYITWVKLRPGQGLEWIGWIYPGSVNIKYNEKFKGKATLTVDTSSSTAYMQLNSLTSEDSAVYFCARGGYSWFPYWGQGTLVTVSA
VL: NIVMTQSPKSMSMSVGERVTLSCKASENVHTYVSWYQQKPEQSPKLLFYGASTRNTGVPDRFTGSGSATDFTLTISSVQAEDLADYYCGQSYSYPYTFGSGTKLEIKR
notes: also called chimeric antibody of murine CDH6-11
Turning to B4, the “MFI_4° C.” value in assay [1] was 10400 MFI. Besides, in assay [2], the EC50 is 1.78 nM and the “Max MFI” value is 4690 MFI. Besides, in assay [3], the EC50 came to 2.14 nM and the “Max MFI” value was determined as 14500 MFI.

B5: CHI-CDH6-6 (antibody, human IgG1, kappa, V domains shown)
VH: EVQLQQSGPELVKPGDSVKMSCKASGYTFTDYYMAWVRQSHRKSLEWIGYIFPNSGGTDYSQKFKGKATLTVDKSSSTVYMELHSLTSEDSAVYYCARELGADYGDYYAMDHWGQGTSVSVSS
VL: DIQMTQSPASLSASVGETVTITCRASENIDSYLAWYQQKQGKSPQLLVYSATLLADGVPSRFSGSGSGTQYSLKINSLKSEDVARYYCQHYYRTPPTFGSGTKLEIKR
notes: also called CHI-hCDH6-6; chimeric antibody of murine CDH6-6
Regarding B5, in assay [1], the “MFI_4° C.” value was 9930 MFI. Also, in assay [2], it took 0.43 nM to reach a half-maximal effect (EC50) and the “Max MFI” value was determined as 4630 MFI. Besides, in assay [3], the concentration giving a half-maximal response (EC50) was 0.67 nM and the “Max MFI” value amounted to 14800 MFI.

B6: CHI-CDH6-7 (antibody, human IgG1, kappa, V domains shown)
VH: EVKLVESGGGLVKPGGSLKVSCAASGFTFSDHGMAWVRQAPGKGPEWVAFISNLAYSIYYADTVTGRFTISRENAKNTLYLEMSSLRSEDTAMYYCARVYVKWYFDVWGAGTTVTVSS
VL: DIQMTQSPASLSASVGETVTITCRASENIDSYLAWYQQKQGKSPQLLVFAATLLADGVPSRFSGSGSGTQYSLKINSLQSEDVARYYCQHYYSTPLTFGAGTKLELKR
notes: also called CH1-CDH6-7; chimeric antibody of murine CDH6-7
In the case of B6, in assay [1], the “MFI_4° C.” value was found to be 5580 MFI. For the same molecule, in assay [2], the EC50 was 7.57 nM and the “Max MFI” value came out at 2470 MFI. In addition, in assay [3], a half-maximal response (EC50) required 5.57 nM and the “Max MFI” value worked out at 12000 MFI.

B7: CHI-CDH6-8 (antibody, human IgG1, kappa, V domains shown)
VH: EVQLQQSGPELVKPGDSVKMSCKASGYTFTDYYMAWIKQNHGKSLEWIGYIYPNNGGTDYNQKFRGKATLTVDKSSSAAYMELHSLTSEDSAVYYCAREIGTLYGDYYAMDYWGQGTSVTVSS
VL: DIQMTQSPASLSASVGETVTITCRASENIDSYLAWYQQKQGKSPQLLVYTATLLADGVPSRFSGSGSGTQYSLKINSLQSEDVARYYCQHYYSTPPTFGSGTKLEIKR
notes: also called chimeric antibody of murine CDH6-8
In the case of B7, the “MFI_4° C.” value in assay [1] is 10100 MFI. Besides, in assay [2], the EC50 was 0.23 nM and the “Max MFI” value is 4710 MFI. For the same molecule, in assay [3], the concentration giving a half-maximal response (EC50) came out at 0.46 nM and the “Max MFI” value turned out to be 16100 MFI.

B8: CHI-CDH6-1 (antibody, human IgG1, kappa, V domains shown)
VH: QVQLQQPGAELVRPGSSVKLSCKASGYTFTNYWMHWVKQRPIEGLEWIGDIDPSHSETHYTQKFKDKATLTVDKSSSTAYMQLSSLTSEDSAVYYCARGDLGRFDYWGQGTTLTVSS
VL: DIVLTQSPASLAVSLGQRATISCRASESVSIHGTHLMHWYQQKSGQPPKLLIYAASNLESGVPARFSGSGSETDFTFNIHPVEEEDAATYFCQQSFEDPWTFGGGTKLEIKR
notes: also called CHI-hCDH6-1; CH1-CDH6-1
As for B8, the “MFI_4° C.” value in assay [1] was 10600 MFI. Moreover, in assay [2], the midpoint of the response, the EC50, lay at 0.1 nM and the “Max MFI” value is 4390 MFI. In assay [3], the EC50 was found to be 0.13 nM and the “Max MFI” value was 14700 MFI.

B9: CHI-CDH6-10 (antibody, human IgG1, kappa, V domains shown)
VH: QVQLQQPGAELVKPGTSVKMSCKASGYTFTSDWIAWVKQRPGQGLEWIGDIYPGSGRTHNNEKFNFKATLTVDTSSNTAYMQLSSLTSEDSAVYFCARPMLGRFDYWGQGTTLTVSS
VL: DIVLTQSPASLAVSLGQRATISCRASESVSIHGTHLMHWYQQKPGQPPKLLIYAASNLESGVPARFSGSGSETDFTLNIHPVEEEDAATYFCQQSFEDPFTFGSGTKLEIKR
notes: also called chimeric antibody of murine CDH6-10
B9: the “MFI_4° C.” value in assay [1] is 10100 MFI. Moreover, in assay [2], a half-maximal response (EC50) required 0.08 nM and the “Max MFI” value worked out at 4070 MFI. Besides, in assay [3], the response was half-maximal at 0.2 nM (EC50) and the “Max MFI” value was found to be 13900 MFI.

B10: CHI-CDH6-9 (antibody, human IgG1, kappa, V domains shown)
VH: QVQLQQPGAELVKPGASVKLSCKASGYTFTGYWMHWVRQRPGQGLEWIGEINPNNGGTNCNEQFKNKATLTVDKSSSTAYMQLSSLTSEDSAVFYCTISFGNYLFFDVWGAGTTVTVSS
VL: DIQMTQSPASLAASVGETITITCQASENIYFSLAWYQQKQGKSPQLLIYNANTLEDGVPSRFVGSGSGTQYSMKINSIQPEDTATYFCDQTYDFPWTFGGGTKLEIKR
notes: also called chimeric antibody of murine CDH6-9
On to B10, for which the “MFI_4° C.” value in assay [1] amounted to 11000 MFI. Also, in assay [2], the EC50 worked out at 0.16 nM and the “Max MFI” value is 4400 MFI. Also, in assay [3], the EC50 worked out at 0.51 nM and the “Max MFI” value worked out at 18200 MFI.

B11: CHI-CDH6-2 (antibody, human IgG1, kappa, V domains shown)
VH: EVQLQQSGPELVKPGASVRISCKASGYTFTDYYMNWVKQSHGKSLEWIGDIDPNNANTTYNQKFKGKATLTVDKSSSTAYMELRSLTSEDSAVYSCASFGYDVEWFGYWGQGTLVTVSA
VL: QIVLTQSPALMSASPGEKVTMTCSASSSVSYMYWYQQKPRSSPKPWIYLTSNLASGVPARFSGSGSGTSYSLTISSMEAEDAATYYCQQWSSNPFTFGSGTKLEIKR
notes: also called chimeric antibody of murine CDH6-2
As to B11, in assay [1], the “MFI_4° C.” value stood at 11100 MFI. Moreover, in assay [2], the EC50 was found to be 0.2 nM and the “Max MFI” value amounted to 4760 MFI. For the same molecule, in assay [3], the response was half-maximal at 0.36 nM (EC50) and the “Max MFI” value is 15600 MFI.
